The data set deals with His-tagged DENV2 NS2B protein (His-NS2B) (aa 48-95).

Here are results for two proteins from patent publication US20190160028.

B1: His-tagged maltose-binding protein (MBP) fused to DENV2 NS3 protein (His-MBP-NS3) (protein)
chain: AGVLWDVPSPPPMGKAELEDGAYRIKQKGILGYSQIGAGVYKEGTFHTMWHVTRGAVLMHKGKRIEPSWADVKKDLISYGGGWKLEGEWKEGEEVQVLALEPGKNPRAVQTKPGLFKTNAGTIGAVSLDFSPGTSGSPIIDKKGKVVGLYGNGVVTRSGAYVSAIAQTEKSIEDNPEIE
Consider B1, for which the “transactivation (protease activity, Abz substrate at 200 µM; NS3 150 nM, NS2B 1 µM)” value was “Both soluble MBP-NS3 fusion protein and refolded NS3 can be trans-activated by soluble His-NS2B, and have similar activities”.

B2: refolded His-NS3 (protein)
chain: AGVLWDVPSPPPMGKAELEDGAYRIKQKGILGYSQIGAGVYKEGTFHTMWHVTRGAVLMHKGKRIEPSWADVKKDLISYGGGWKLEGEWKEGEEVQVLALEPGKNPRAVQTKPGLFKTNAGTIGAVSLDFSPGTSGSPIIDKKGKVVGLYGNGVVTRSGAYVSAIAQTEKSIEDNPEIE
As for B2, the “transactivation (protease activity, Abz substrate at 200 µM; NS3 150 nM, NS2B 1 µM)” value is “Both soluble MBP-NS3 fusion protein and refolded NS3 can be trans-activated by soluble His-NS2B, and have similar activities”.
